In US7379820 (Pfizer, dated 2008):
Positions count from the first letter of the chain named.

T1: MBP-TRADD (full-length TRADD protein expressed as a MBP fusion) (UniProt Q15628 1-312)
T1 construct: mature; Immobilized on 96 well plates for ELISA
T1 sequence (looked up): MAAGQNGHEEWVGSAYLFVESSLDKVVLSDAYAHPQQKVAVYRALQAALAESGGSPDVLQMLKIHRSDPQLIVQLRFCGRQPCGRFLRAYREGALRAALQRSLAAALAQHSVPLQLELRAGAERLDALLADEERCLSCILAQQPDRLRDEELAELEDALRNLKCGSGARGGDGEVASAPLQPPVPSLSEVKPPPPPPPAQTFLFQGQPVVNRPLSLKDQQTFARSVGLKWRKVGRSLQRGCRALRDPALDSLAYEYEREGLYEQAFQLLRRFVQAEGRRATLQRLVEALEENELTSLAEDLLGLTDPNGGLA

B1: RIP DD E626A (other)
chain: MAIFDNTTSLTDKHLDPIRENLGKHWKNCARKLGFTQSQIDEIDHDYERDGLKAKVYQMLQKWVMREGIKGATVGKLAQALHQCSRIDLLSSLIYVSQNHHHHHHH
notes: Single point alanine mutant of the His-tagged RIP DD construct; soluble mutant
B2: RIP DD R603A (other)
chain: B1 chain with R31A, A54E
notes: as for B1
B3: RIP DD K627A (other)
chain: B1 chain with A54E, K55A
notes: Single point alanine mutant of the His-tagged RIP DD construct
B4: RIP DD K599A (other)
chain: B1 chain with K27A, A54E
notes: as for B3
B5: RIP DD K625A (other)
chain: B1 chain with K53A, A54E
notes: as for B3

Target: T1, MBP-TRADD (full-length TRADD protein …)
Experiment: ELISA, MBP-TRADD immobilized on 96 well plates
Experimental: RIP DD binding assay. RIP DD binding to TRADD was determined by an enzyme-linked immunosorbent assay (ELISA). Ninety six well plates were coated overnight at 4° C. with 200 ng of MBP-TRADD, MBP-TNFR-1 DD, or MBP-IL1RacP (interleukin-1 receptor accessory protein) in coating buffer (25 mM MOPS pH 7.5, 150 mM NaCl, 10 mM DTT, 0.02% NaN_3). The plates were then incubated in blocking buffer (10 mM MOPS pH 7.5, 150 mM NaCl, 0.05% Tween 20, 0.1% Gelatin, 0.02% NaN_3) for one hour followed by one hour incubation with the different RIP DD proteins in binding buffer (100 mM Tris pH 7.5, 140 mM NaCl, 0.1 mM EDTA, 0.2% Triton X-100, 10 mM DTT). The plates were washed 4 times in 10 mM potassium phosphate buffer pH 7.4, 0.05% Tween 20. The bound His tagged proteins were then incubated for 30 minutes in 10 mM MOPS pH 7.5, 150 mM NaCl, 0.05% Tween 20, 0.02% NaN_3 anti-6× His biotinylated anti mouse antibody and strepavidin conjugated alkaline phosphatase. The plates were washed 4 times in 10 mM potassium phosphate buffer pH 7.4, 0.05% Tween. Tropix CDP-Star/Sapphire II solution was used for the luminescent detection of alkaline phosphatase.
Figure 4: FIGS. 4A and 4B. (A) Effect of the ionic strength on the binding of RIP-DD (30 μg/mL) to MBP-TRADD. (B) ELISA of RIP-DD binding to MBP-TRADD. MBP-TRADD was immobilized at 500 ng/well on 96 well plates. The reference at 100% is the binding of the wild type protein to MBP-TRADD. The values used for the determination of the binding percentage were obtained with ~30 μg/ml of soluble protein. Figure 4: Figure 5: FIG. 5. Sequence alignment of the death domains of FAS (SEQ ID NO:2) and RIP (SEQ ID NO:3). Identical residues and homologous residues are shaded. The helices identified from the NMR structure of FAS DD (Huang et al., 1996) are located above the sequence and the helices identified from the NMR structure of RIP DD are located below the sequence.

Binder | binding result
B1 | no binding (tested: ~30 µg/ml of soluble protein)
B2 | no binding (tested: ~30 µg/ml of soluble protein)
B3 | no binding (tested: ~30 µg/ml of soluble protein)
B4 | no binding (tested: ~30 µg/ml of soluble protein)
B5 | no binding (tested: ~30 µg/ml of soluble protein)
